What was measured:
[1] = molecular target: T1, HerA (Saccharolobus solfataricus, UniProt Q97WG8 1-500); assay: EMSA; HerA alone, increasing amounts; EMSA: 5 pmol fluorescent DNA in 10 ul, 20 mM HEPES/NaOH pH 7.5, 35 mM beta-mercaptoethanol, 500 mM NaCl, 50 mM MgCl2 (so in the source), 10 min room temperature, 5% PAGE in 0.5x TBE; settings: protein: recombinant; chain copies: 6; single strand
T1 sequence: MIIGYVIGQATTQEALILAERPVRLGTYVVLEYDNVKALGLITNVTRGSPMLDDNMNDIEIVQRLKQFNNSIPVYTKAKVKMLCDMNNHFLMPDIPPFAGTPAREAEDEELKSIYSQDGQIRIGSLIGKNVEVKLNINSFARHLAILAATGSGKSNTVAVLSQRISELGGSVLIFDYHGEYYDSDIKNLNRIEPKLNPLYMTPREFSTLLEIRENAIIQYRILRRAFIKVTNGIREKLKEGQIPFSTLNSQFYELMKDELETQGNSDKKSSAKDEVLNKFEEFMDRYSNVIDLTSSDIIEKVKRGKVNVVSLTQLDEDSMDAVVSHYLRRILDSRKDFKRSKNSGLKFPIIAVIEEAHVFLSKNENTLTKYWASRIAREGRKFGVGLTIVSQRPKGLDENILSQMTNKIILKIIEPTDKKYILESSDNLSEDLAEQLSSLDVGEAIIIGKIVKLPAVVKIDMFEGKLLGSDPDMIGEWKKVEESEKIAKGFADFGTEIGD

[2] = molecular target: T2, NurA (Saccharolobus solfataricus, UniProt Q97WH1 1-339); assay: EMSA; with SSB: NurA binding not significantly influenced; EMSA: 5 pmol fluorescent DNA in 10 ul, 20 mM HEPES/NaOH pH 7.5, 35 mM beta-mercaptoethanol, 500 mM NaCl, 50 mM MgCl2 (so in the source), 10 min room temperature, 5% PAGE in 0.5x TBE; settings: protein: recombinant; chain copies: 2; single strand
T2 sequence: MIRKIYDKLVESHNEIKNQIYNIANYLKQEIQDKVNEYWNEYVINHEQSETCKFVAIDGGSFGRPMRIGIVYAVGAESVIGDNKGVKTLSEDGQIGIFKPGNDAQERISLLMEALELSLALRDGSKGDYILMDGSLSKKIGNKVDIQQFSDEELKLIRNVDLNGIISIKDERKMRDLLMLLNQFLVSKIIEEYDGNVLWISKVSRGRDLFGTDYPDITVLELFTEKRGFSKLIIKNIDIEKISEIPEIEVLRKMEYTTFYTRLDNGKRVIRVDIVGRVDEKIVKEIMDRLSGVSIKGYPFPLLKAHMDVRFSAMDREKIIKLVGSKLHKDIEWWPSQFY

[3] = molecular target: T3, SSB (Saccharolobus solfataricus, UniProt Q97W73 1-148); assay: EMSA; 2.5 pmol NurA/HerA, 1.5 pmol SSB, increasing ATP: no effect of ATP on stimulation; EMSA: 5 pmol fluorescent DNA in 10 ul, 20 mM HEPES/NaOH pH 7.5, 35 mM beta-mercaptoethanol, 500 mM NaCl, 50 mM MgCl2 (so in the source), 10 min room temperature, 5% PAGE in 0.5x TBE; settings: protein: recombinant; chain copies: 2; single strand
T3 sequence: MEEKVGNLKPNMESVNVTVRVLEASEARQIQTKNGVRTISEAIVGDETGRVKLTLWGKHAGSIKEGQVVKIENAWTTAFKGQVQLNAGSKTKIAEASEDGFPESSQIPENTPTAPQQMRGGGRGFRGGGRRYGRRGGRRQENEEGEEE

[4] = molecular target: T3, SSB; assay: EMSA; with NurA/HerA: SSB binding strongly stimulated; EMSA: 5 pmol fluorescent DNA in 10 ul, 20 mM HEPES/NaOH pH 7.5, 35 mM beta-mercaptoethanol, 500 mM NaCl, 50 mM MgCl2 (so in the source), 10 min room temperature, 5% PAGE in 0.5x TBE; settings: protein: recombinant
[5] = molecular target: T1, HerA; assay: EMSA; in NurA/HerA with SSB: HerA binding not reduced on fork; EMSA: 5 pmol fluorescent DNA in 10 ul, 20 mM HEPES/NaOH pH 7.5, 35 mM beta-mercaptoethanol, 500 mM NaCl, 50 mM MgCl2 (so in the source), 10 min room temperature, 5% PAGE in 0.5x TBE; settings: protein: recombinant; chain copies: 6; fork 1:2; 50 bp duplex, unpaired 5' T20 of strand 1 and 3' 20 nt of strand 2

GTTTTCCCAGTCACGAC (ssDNA) [17 merTAMRA]
binding result [1]: binds
binding result [2]: binds
binding result [3]: binds

B1: 70 leadCy5 (70 mer) (ssDNA)
DNA: CGTGACTTGATGTTAACCCTAACCCTAAGAATTCGGCTTAAGTGAGTGTGAGGATATCATGTACGATAGC
binding result ([4]; chain copies: 2, single strand): binds

B2: Forked substrate (70 lagFork/70 leadCy5) (dsDNA)
DNA 1: TTTTTTTTTTTTTTTTTTTTCACACTCACTTAAGCCGAATTCTTAGGGTTAGGGTTAACATCAAGTCACG
DNA 2: B1 DNA
binding result ([4]; fork 1:2, 50 bp duplex, unpaired 5' T20 of strand 1 and 3' 20 nt of strand 2): binds
binding result [5]: binds

GCCGTGATCACCAATGCAGATTGACGAACCTTTGCCCACGT (ssDNA) [40 merCy3]
binding result ([4]; chain copies: 2, single strand): binds

GCTATCGTACATGATATCCTC (ssDNA) [21 merTAMRA]
binding result ([4]; chain copies: 2, single strand): binds

Reference: article PMC8910471, “The Finely Coordinated Action of SSB and NurA/HerA Complex Strictly Regulates the DNA End Resection Process in Saccharolobus solfataricus”
